# T1: BmEcR (ecdysone receptor);BmUSP (ultraspiracle) (Bombyx mori;Bombyx mori, UniProt P49881;P49700 1-606;1-462, |)
# T1 sequence 1: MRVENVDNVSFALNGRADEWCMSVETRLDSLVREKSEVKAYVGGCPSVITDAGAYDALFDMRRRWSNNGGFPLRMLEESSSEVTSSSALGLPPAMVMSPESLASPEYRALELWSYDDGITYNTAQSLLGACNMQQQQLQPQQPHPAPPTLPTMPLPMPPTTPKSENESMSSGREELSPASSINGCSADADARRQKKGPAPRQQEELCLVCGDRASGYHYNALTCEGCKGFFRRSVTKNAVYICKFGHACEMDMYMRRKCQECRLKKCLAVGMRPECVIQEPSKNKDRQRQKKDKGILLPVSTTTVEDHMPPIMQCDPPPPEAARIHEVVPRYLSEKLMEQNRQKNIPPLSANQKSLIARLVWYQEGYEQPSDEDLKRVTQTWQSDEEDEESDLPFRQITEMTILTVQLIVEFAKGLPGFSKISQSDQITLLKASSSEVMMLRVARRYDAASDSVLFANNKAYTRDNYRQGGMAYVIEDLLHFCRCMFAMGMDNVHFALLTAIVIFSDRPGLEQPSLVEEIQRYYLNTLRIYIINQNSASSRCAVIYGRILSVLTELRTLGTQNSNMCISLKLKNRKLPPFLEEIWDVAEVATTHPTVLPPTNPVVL
# T1 sequence 2: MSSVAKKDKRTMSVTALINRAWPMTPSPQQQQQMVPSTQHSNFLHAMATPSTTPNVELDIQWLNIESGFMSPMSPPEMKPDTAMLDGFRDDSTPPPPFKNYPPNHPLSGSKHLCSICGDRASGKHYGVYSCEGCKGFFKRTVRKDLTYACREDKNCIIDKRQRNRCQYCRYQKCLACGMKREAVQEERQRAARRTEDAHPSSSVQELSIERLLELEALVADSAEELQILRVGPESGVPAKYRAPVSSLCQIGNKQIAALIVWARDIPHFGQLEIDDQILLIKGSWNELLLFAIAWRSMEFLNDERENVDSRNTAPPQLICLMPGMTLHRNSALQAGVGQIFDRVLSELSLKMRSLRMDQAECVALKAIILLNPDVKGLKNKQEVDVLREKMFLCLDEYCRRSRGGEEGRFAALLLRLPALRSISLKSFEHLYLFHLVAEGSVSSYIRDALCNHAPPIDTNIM
# B1: EcRE-like 1 probe (Bio-ERRE-1) (dsDNA)
# DNA 1: ATTAAGTAGCAGTAAACTGTGACCT
# DNA 2: AGGTCACAGTTTACTGCTACTTAAT
# B2: EcRE-like 1 mutant probe (Bio-ERRE-1 mut) (dsDNA)
# DNA 1: ATTAGACGATGACGGGTCATGACCT
# DNA 2: AGGTCATGACCCGTCATCGTCTAAT
# B3: EcRE-like 2 probe (Bio-ERRE-2) (dsDNA)
# DNA 1: TAAAGAACCTTTATTAAAATTAAAATA
# DNA 2: TATTTTAATTTTAATAAAGGTTCTTTA
# B4: EcRE-like 3 probe (Bio-ERRE-3) (dsDNA)
# DNA 1: GTTCCGAAATAAAATTACCTGATGGTA
# DNA 2: TACCATCAGGTAATTTTATTTCGGAAC
# B5: EcRE-like 8 probe (Bio-ERRE-8) (dsDNA)
# DNA 1: GAGACAGCGTTAGCTGATATTCTAAAT
# DNA 2: ATTTAGAATATCAGCTAACGCTGTCTC
# Molecular target: T1, BmEcR (ecdysone receptor);BmUSP …
# Experiment: EMSA; EMSA: 25 C for 25 min; Beyotime chemiluminescent EMSA kit (binding buffer not stated); 5% native PAGE in Tris-borate-EDTA (45 mM Tris-borate, 1 mM EDTA, pH 8.3); probe 5 uM, BmEcR 0.3 ug/uL, BmUSP 0.45 ug/uL
# Conditions: protein: recombinant;recombinant; tags: ;; copies: 1;1; label: 3'-biotin; blunt
binder,measurement,value
B1,binding result,binds
B2,binding result,no binding
B3,binding result,no binding
B4,binding result,no binding
B5,binding result,no binding
